{"source": "patent US20260242731A1", "key": {"CD19.1-Fc (Human) [1]": {"molecular_target": "CD19.1-Fc (Human)", "assay": "on-bead anti-CD19-FITC (FMC63) binding assay"}, "CD19.1-Fc (Human) [2]": {"molecular_target": "CD19.1-Fc (Human)", "assay": "on-bead fluorescence binding capacity assay; CD19.1-Fc coated beads"}, "[3]": {"molecular_target": "custom-produced WT etCD19-Fc (Human; human) (UniProt P15391)", "assay": "on-bead fluorescence binding capacity assay; wtCD19 Fc coated beads"}, "CD19.1-Fc (Human) [4]": {"molecular_target": "CD19.1-Fc (Human)", "assay": "on-bead fluorescence binding capacity assay; beads CD19.1-Fc (0.5 x moles)"}, "CD19.1-Fc (Human) [5]": {"molecular_target": "CD19.1-Fc (Human)", "assay": "on-bead fluorescence binding capacity assay; beads CD19.1-Fc (1.0 x moles)"}, "CD19.1-Fc (Human) [6]": {"molecular_target": "CD19.1-Fc (Human)", "assay": "on-bead fluorescence binding capacity assay; beads CD19.1-Fc (2.0 x moles)"}, "CD19.1-Fc (Human) [7]": {"molecular_target": "CD19.1-Fc (Human)", "assay": "on-bead fluorescence binding capacity assay; beads CD19.1-Fc (5.0 x moles)"}, "CD19.1-His (Human) [8]": {"molecular_target": "CD19.1-His (Human) (UniProt P15391)", "assay": "on-bead fluorescence binding capacity assay; beads CD19.1-His (0.5 x moles)"}, "CD19.1-His (Human) [9]": {"molecular_target": "CD19.1-His (Human) (UniProt P15391)", "assay": "on-bead fluorescence binding capacity assay; beads CD19.1-His (1.0 x moles)"}, "CD19.1-His (Human) [10]": {"molecular_target": "CD19.1-His (Human) (UniProt P15391)", "assay": "on-bead fluorescence binding capacity assay; beads CD19.1-His (2.0 x moles)"}, "CD19.1-His (Human) [11]": {"molecular_target": "CD19.1-His (Human) (UniProt P15391)", "assay": "on-bead fluorescence binding capacity assay; beads CD19.1-His (5.0 x moles)"}, "CD19.1-Fc (Human) [12]": {"molecular_target": "CD19.1-Fc (Human)", "assay": "direct ELISA, CD19 variant coated on plate (2D), FMC63-HRP titrated, OD450nm"}, "CD19.1-Fc (Human) [13]": {"molecular_target": "CD19.1-Fc (Human)", "assay": "on-bead ELISA, HRP-conjugated FMC63 titrated on CD19.1 Fc coated beads, absorbance at 450 nm, four-parameter logistic fit"}, "CD19.1-His (Human) [14]": {"molecular_target": "CD19.1-His (Human) (UniProt P15391)", "assay": "on-bead ELISA, HRP-conjugated FMC63 titrated on CD19.1 His coated beads, absorbance at 450 nm, four-parameter logistic fit"}, "[15]": {"molecular_target": "WT etCD19-His (Acrobiosystems) (Human) (UniProt P15391)", "assay": "on-bead ELISA, HRP-conjugated FMC63 titrated on wtCD19 His coated beads, absorbance at 450 nm, four-parameter logistic fit"}, "[16]": {"molecular_target": "FMC63-scFv-41BBz CAR on Jurkat-Lucia NFAT cells", "assay": "cell-based or functional assay"}, "CD19 antibody FMC63 [17]": {"molecular_target": "CD19 antibody FMC63", "assay": "biolayer interferometry, FMC63 immobilized"}, "[18]": {"molecular_target": "FMC63-derived anti-CD19 28z CAR on primary T cells", "assay": "flow cytometry, FITC-labeled protein titrated on anti-CD19 28z CAR primary T cells, four-parameter fit"}, "CD19 antibody FMC63 [19]": {"molecular_target": "CD19 antibody FMC63", "assay": "biolayer interferometry, FMC63 immobilized; stronger non-specific binding noted"}}, "data": [{"substance": "CD19 antibody FMC63", "values": [{"measurement": "fold binding capacity (functional antigen density) against wtCD19 coated beads (times higher than wtCD19 coated beads)", "setting": "CD19.1-Fc (Human) [1]", "value": 3.5}, {"measurement": "Moles of antibody per mg of beads (mol per mg of beads)", "setting": "CD19.1-Fc (Human) [2]", "value": "4.6e-13"}, {"measurement": "Percentage of CD19.1 or wt CD19 Fc molecules bound by anti-CD19-FITC (FMC63)", "setting": "CD19.1-Fc (Human) [2]", "value": 1.36, "unit": "%"}, {"measurement": "Moles of antibody per mg of beads (mol per mg of beads)", "setting": "[3]", "value": "1.3e-13"}, {"measurement": "Percentage of CD19.1 or wt CD19 Fc molecules bound by anti-CD19-FITC (FMC63)", "setting": "[3]", "value": 0.37, "unit": "%"}, {"measurement": "% of CD19.1 molecules bound by anti-CD19-FITC", "setting": "CD19.1-Fc (Human) [4]", "value": 0.7, "unit": "%"}, {"measurement": "Moles of antibody per mg of beads (mol per mg of beads)", "setting": "CD19.1-Fc (Human) [4]", "value": "2.8e-13"}, {"measurement": "% of CD19.1 molecules bound by anti-CD19-FITC", "setting": "CD19.1-Fc (Human) [5]", "value": 0.87, "unit": "%"}, {"measurement": "Moles of antibody per mg of beads (mol per mg of beads)", "setting": "CD19.1-Fc (Human) [5]", "value": "4.1e-13"}, {"measurement": "% of CD19.1 molecules bound by anti-CD19-FITC", "setting": "CD19.1-Fc (Human) [6]", "value": 1.21, "unit": "%"}, {"measurement": "Moles of antibody per mg of beads (mol per mg of beads)", "setting": "CD19.1-Fc (Human) [6]", "value": "6e-13"}, {"measurement": "% of CD19.1 molecules bound by anti-CD19-FITC", "setting": "CD19.1-Fc (Human) [7]", "value": 1.86, "unit": "%"}, {"measurement": "Moles of antibody per mg of beads (mol per mg of beads)", "setting": "CD19.1-Fc (Human) [7]", "value": "1e-12"}, {"measurement": "% of CD19.1 molecules bound by anti-CD19-FITC", "setting": "CD19.1-His (Human) [8]", "value": 0.8, "unit": "%"}, {"measurement": "Moles of antibody per mg of beads (mol per mg of beads)", "setting": "CD19.1-His (Human) [8]", "value": "4.9e-13"}, {"measurement": "% of CD19.1 molecules bound by anti-CD19-FITC", "setting": "CD19.1-His (Human) [9]", "value": 0.76, "unit": "%"}, {"measurement": "Moles of antibody per mg of beads (mol per mg of beads)", "setting": "CD19.1-His (Human) [9]", "value": "5.1e-13"}, {"measurement": "% of CD19.1 molecules bound by anti-CD19-FITC", "setting": "CD19.1-His (Human) [10]", "value": 1.66, "unit": "%"}, {"measurement": "Moles of antibody per mg of beads (mol per mg of beads)", "setting": "CD19.1-His (Human) [10]", "value": "1.14e-12"}, {"measurement": "% of CD19.1 molecules bound by anti-CD19-FITC", "setting": "CD19.1-His (Human) [11]", "value": 2.17, "unit": "%"}, {"measurement": "Moles of antibody per mg of beads (mol per mg of beads)", "setting": "CD19.1-His (Human) [11]", "value": "2e-12"}, {"measurement": "EC50 (read off the curve)", "setting": "CD19.1-Fc (Human) [12]", "value": 4, "unit": "ng/mL"}, {"measurement": "EC50", "setting": "CD19.1-Fc (Human) [13]", "value": 0.59, "unit": "nM"}, {"measurement": "EC50", "setting": "CD19.1-His (Human) [14]", "value": 0.36, "unit": "nM"}, {"measurement": "EC50", "setting": "[15]", "value": 0.68, "unit": "nM"}]}, {"substance": "CD19.1 (immobilized on plates or coated on beads; tagged version not stated) (from UniProt P15391 20-291)", "values": [{"measurement": "maximum stimulation against TransAct at 1:100 dilution (fold stronger than TransAct)", "setting": "[16]", "value": 3.4}]}, {"substance": "CD19.1-Fc (Fc fusion)", "values": [{"measurement": "Kd", "setting": "CD19 antibody FMC63 [17]", "value": 0.103, "unit": "nM"}, {"measurement": "EC50", "setting": "[18]", "value": 1.9, "unit": "nM"}]}, {"substance": "CD19.1-His (from UniProt P15391 20-291)", "values": [{"measurement": "Kd", "setting": "CD19 antibody FMC63 [17]", "value": 3.18, "unit": "nM"}, {"measurement": "EC50", "setting": "[18]", "value": 15.8, "unit": "nM"}]}, {"substance": "WT etCD19-His (Acrobiosystems) (from UniProt P15391 20-291)", "values": [{"measurement": "Kd", "setting": "CD19 antibody FMC63 [19]", "value": 7.18, "unit": "nM"}]}, {"substance": "purchased WT etCD19-His (from UniProt P15391 20-291)", "values": [{"measurement": "Kd", "setting": "CD19 antibody FMC63 [19]", "value": 3.88, "unit": "nM"}]}]}
